According to the supplement of paper PMC9170038:

These sequences were tested on K4 kissing-loop RNA reporter (assay: apparent KD of K4 kissing-loop reporter; higher = weaker reporter binding). Details: Eterna round: R107; input ligand: theophylline 20 uM.
Method: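 RNA-MaP round R107: designed RNA switches with theophylline, tryptophan, arginine or FMN aptamers are transcribed on-chip within common flanks. They are titrated with a labelled K4 kissing-loop RNA reporter in RNA-MaP buffer (100 mM Tris pH 7.5, 80 mM KCl, 4 mM MgCl2), without ligand or with the indicated ligand. Median apparent KD per design.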
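Note: bound reporter read as fluorescence of individual clusters on recovered sequencing chips by microscopy, with normalized cluster intensities fitted with a binding model.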

Row | Sequence | apparent KD of K4 kissing-loop reporter
1 | UAGGGCAUCGCAGGAUAUCCUGCUUAACGUUGGAUUCCAGUGAUGUUGGAAAGCCGGCCUAGGGUAGGAGAAGGGCGGACUUGAA [Riteteve] | 0.187 µM
2 | UGUGUUGUUUUGAUGUUUGGUGUUUGUUGGCAGGAUAUCGUAGAGGCGAGAAGGGCUUUGUUGCGGUAUGAGUGAUGUUUGUAGG [szzrmullin] | 0.244 µM
3 | GGAAAUUGAUCAACGCAGUGAUGUUGCGAUACCAGACACAAAGCCGUCCCUUGGCAGCGCGGGACAUUAAUGGAUCUAUGGGUUC [theeternabot_exclusion_KL_Theo_A_26] | 0.119 µM
4 | GAUAUAGUGAUGUUAUAUGGGAAGGAGUUACGAGGACCGGUACGGCCGCCACUCGAAACGAGUGAGGAUUUGGGAGAUUGGGUUU [SSTryptA.R] | 0.488 µM
5 | UGUGAGCUGUCGACAAAAGUCGACUAAAGCGAGGAUAUGACGAAAGUCAGAAGGCGUCAAUAAUGGAGUGAUGUUCCUGCUCACU [FmnA 9 G29] | 0.489 µM
6 | CGAGUCCUGAGGAGUGAUGUUCCUCGGCCACGAGGACCGGUACGGCCGCCACUCGUUACUCGGGCUUAGUAGCUAGCACUAAGCU [Quedmaon] | 0.232 µM
7 | GGAGUUACCUGGGAUACCAGUCGGAGUCUCAGAGCUCGGAGUGAUGUUCUGGGAUGUUUCGGCCCUUGGCAGCUCUGGGACUCCA [#2 Exclusion - Theophylline B Attempt #16 (HarryS)] | 0.843 µM
8 | AGCCUUACAUCGGCCGCCACUUCCCUGGCAGUGAUGUUGCCGUAGACAAUCAUUCUACCCUGGAGAAGGACCGGGAUGCAGAAAC [theeternabot_sameState_KL_Trp_B_8] | 0.223 µM
9 | UUUGGAGUGGGAGGAUAUCCUAAUAUGGGUGAUGUUAGCGAUGUUGAAGGUGUAGUGAUGUUAUGCGGAGAAGGCCCACUGUAGA [BDazzled - #19 - Exc. FMN B] | 0.0856 µM
10 | AGAUGGAAUAGAAGGAGCGGCGCCAGUGAUGUUGGAUGCCGCGGGUGAAUCAGAUCAUAGUGCCAGGUAGGUCGCUAUUUCAGCG [Anedin] | 0.116 µM
11 | AAAAUAAAUAGCAGUCAUGGAGUGAUGUUCCGAGGACCGGUACGGCCGCCACUCGACCAUCAUAAGAUGGAAUGGCGAGACUGCA [#SwitchBubble 22 #K4Early] | 0.362 µM
12 | UGGAGUUGACGAAAAGUCAACUCCUGGGAAGGAGCGGACGAAAGUCCAGGUAGGUCGCCCACUACCAGUGAUGUUGGUACUCAAA | 0.266 µM
13 | UGGAGUUGACGAAAAGUCAACUCCUGAGAUACCAGUGACGAAAGUCACCCUUGGCAGCUCACUGGCAGUGAUGUUGCGCGAUAAA [#23 K4 Theophylline A Same State] | 0.367 µM
14 | GCCGUACGCAUGGAUACCAGUCUACAUCGCAGUGAUGUUGCGUAGUUCAGAUAGAUUGCCGACCCUUGGCAGCCAUGCGUACGGC | 0.109 µM
15 | AGAACUGUCUUGGAUACCAGUGAUGUUGGUAUCGAUGUGUGAGUGCAAAGCGUCCCACAUCGCCCUUGGCAGCUAAGACUGUUCA [Omei KL Theo B Exc A v4] | 0.349 µM
16 | GAUGAACUAUUCGAUACCAGACUACAUGAGUGAUGUUCAUGUGUGUCAAUGUCUAUGUCAGUCCCUUGGCAGCGAAUAGUUUAUC [KL-XTheo-B27] | 0.141 µM
17 | CGAGUGAUGUUCGUUUUUUACUCUUUUUGACAGGAUAUGCGGAAACGCAGAAGGGUCACCUUUGAGUUAAAAGGAGUUAUUUUUU [Ex FMN A 19] | 0.305 µM
18 | UCGUCUGUGUGAGGAUAUCCAAGCGAGCUGCGUACAGGUGCGGCGUUUGGAGUGAUGUUCCAGGCAGGAGAAGGCGCACGGGCUU [Esored] | 0.285 µM
19 | GAAUGGAGUGAUGUUCCAUUAACGAUCCUACGAGGACCGGUACGGCCGCCACUCGUAUUGCAGUGAUGUUGCAACCAGCCGUACU [Exclusion Tryptophan A GF 9] | 0.111 µM
20 | AUGCUUCAGUAAGGAUAUGGAGGCAGAGUGAAGAUUGUCGUGUAACCGAGUUAAGUGAUGUUUGAUCCAGAAGGUACAUGCGUGU [theeternabot_exclusion_KL_FMN_B_15] | 0.379 µM
21 | UGCGCUGUGUACUGUAAUGUUAUGCGGGAUACCAGAGUCUUUUUAUUCCCUUGGCAGCUUGAGUGAUGUUUGAUGCCGUUCUUGU [plpkmullin] | 0.452 µM
22 | GGUAUGGAAGCAACAUCACAAGCCGUACCACGAGGACCGGUACGGCCGCCACUCGAUAACUUGCAGUGAUGUUGCAAGUAAGAAU [(T)''-(K)'-(T)'-(T1)-(T2)-(K1)-(K2)_Design6] | 0.117 µM
23 | GGUUCUGGUUUGGAGUGAUGUUCUAAGUGGCAGGAUAUGGAGAGAUCCAGAAGGGCCGUUUGUAUCUUUUUUGUGUGGUUUUUUU [Last Minute #2] | 0.206 µM
24 | AAAUUUAAUAUAUUUAAUUAAUUAUGUGAUACCAGACAUUAAUAAGUCCCUUGGCAGCACAAUGCAGUGAUGUUGCUUAUAAUAA [JR_SSTheophyA_Sub010] | 0.138 µM
25 | AGAGUUAUAUGAGGAUAUGGGAUAGUAACUGAGUGAGUUAUAGUGUAGUUUGUUUAGUGAUGUUAUUUAGAAGGCGUGAGUGAUG [wwwsemullin] | 0.182 µM
26 | AUGUCGUUAUAGUGAGUGAUGUUCACUGUGCGAGGACCGGUACGGCCGCCACUCGAGAGUGGUGGACACUGAGUCACUCUGACAC [Tryp A Ex t2] | 0.111 µM
27 | UGGACCUGACUCGAUAAGAGUCAAUGAGAUACCAGCCACGAAAGUGGCCCUUGGCAGCUCUGCCAGUGAUGUUGGUCAAGGUCCU [#SwitchBubble 5 #StaticStem] | 0.584 µM
